# Measurements published in paper PMC5263102.
# Molecular target: chimeric FcεRI (human α, rat β/γ) on hRBL^rαKO cells (human | rat (endogenous in RBL-2H3)) (UniProt P12319)
# Assay: flow cytometry on cells
# Chain of UniProt P12319 (P12319 26-257, change not shown, chain 1 of 3): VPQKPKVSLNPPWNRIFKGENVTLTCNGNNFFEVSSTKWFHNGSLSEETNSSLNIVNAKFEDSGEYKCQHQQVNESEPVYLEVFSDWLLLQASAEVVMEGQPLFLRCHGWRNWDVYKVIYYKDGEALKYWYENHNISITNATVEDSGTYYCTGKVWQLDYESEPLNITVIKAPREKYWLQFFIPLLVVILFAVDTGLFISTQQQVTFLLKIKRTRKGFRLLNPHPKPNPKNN
# Chain of UniProt P12319 (P13386 whole entry, change not shown, chain 2 of 3, further chain): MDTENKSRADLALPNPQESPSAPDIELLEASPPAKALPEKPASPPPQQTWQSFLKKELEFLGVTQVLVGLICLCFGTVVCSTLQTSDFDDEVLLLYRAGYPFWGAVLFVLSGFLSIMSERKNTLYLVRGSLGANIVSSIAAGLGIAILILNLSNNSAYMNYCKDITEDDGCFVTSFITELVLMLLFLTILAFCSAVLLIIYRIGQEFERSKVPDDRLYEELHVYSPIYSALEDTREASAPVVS
# Chain of UniProt P12319 (P20411 19-86, change not shown, chain 3 of 3, further chain): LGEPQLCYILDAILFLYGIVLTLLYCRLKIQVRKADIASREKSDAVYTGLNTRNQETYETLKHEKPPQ
substance,measurement,value
"human IgE, Alexa 488-conjugated (hIgE^Alexa-488) (antibody)",% Receptor Occupied at 3.75 ng/ml IgE,0.16%
same,% Receptor Occupied at 7.5 ng/ml IgE,0.26%
same,% Receptor Occupied at 15 ng/ml IgE,0.44%
same,% Receptor Occupied at 30 ng/ml IgE,1.1%
same,% Receptor Occupied at 60 ng/ml IgE,1.89%
same,% Receptor Occupied at 120 ng/ml IgE,4%
same,% Receptor Occupied at 1000 ng/ml IgE,28%
same,% Receptor Occupied at 4000 ng/ml IgE,60%
same,% Receptor Occupied at 8000 ng/ml IgE,78%
same,% Receptor Occupied at 10000 ng/ml IgE,83%
same,% Receptor Occupied at 15000 ng/ml IgE,93%
same,% Receptor Occupied at 20000 ng/ml IgE,100%
same,koff,1.53e-05 s⁻¹
same,kon,6230 M⁻¹ s⁻¹
